According to patent US11091559B2, “Anti-ALK antibodies and methods for use thereof” (Celldex Therapeutics, Inc., priority 2015, dated 2021):

Experiments:
[1] = tested on: ALK on the surface of NB1 cells; assay: KD determination by flow cytometry on NB1 cells; format: binding; details: NB1 (human) cells, FACS, mean
Method: FIG. 3 depicts the apparent affinities (KD) of ALK antibodies for ALK expression on the surface of NB1 cells. KD was determined by flow cytometry. Titration of each antibody on NB1 cells for 2-4 hours at 4° C. was followed by incubation with a fluorescently-labeled secondary antibody. The normalized mean fluorescent intensity […] shown as “% Max binding” was plotted as a function of antibody concentration.
Flow cytometry was utilized to measure the affinity at steady state (KD) with which different ALK antibodies bind to ALK on the surface of NB1 cells (FIG. 3). Titration of each antibody on NB1 cells for 2-4 hours at 4° C. was followed by incubation with a fluorescently-labeled secondary antibody. The normalized mean fluorescent intensity (MFI) shown as “% Max binding” was plotted as a function of antibody concentration. The data were fit to a one site binding isotherm using GraphPad Prism, from which affinity values were derived.
(§1) Amino acid residues that differ between rat ALK and mouse ALK are boxed. KD values for both NB1 (human) cells and Neuro2a (mouse) cells were also determined.

[2] = biological target: murine ALK (purified mouse ALK antigen) (Mus musculus, UniProt P97793); assay: Mouse ALK cross-reactivity, solid-state ELISA; format: binding; parameters: key: − none; + weak; ++ moderate; +++ strong; details: cross-reactivity with murine ALK
murine ALK (purified mouse ALK antigen), sequence (P97793 19-1042 limits assumed): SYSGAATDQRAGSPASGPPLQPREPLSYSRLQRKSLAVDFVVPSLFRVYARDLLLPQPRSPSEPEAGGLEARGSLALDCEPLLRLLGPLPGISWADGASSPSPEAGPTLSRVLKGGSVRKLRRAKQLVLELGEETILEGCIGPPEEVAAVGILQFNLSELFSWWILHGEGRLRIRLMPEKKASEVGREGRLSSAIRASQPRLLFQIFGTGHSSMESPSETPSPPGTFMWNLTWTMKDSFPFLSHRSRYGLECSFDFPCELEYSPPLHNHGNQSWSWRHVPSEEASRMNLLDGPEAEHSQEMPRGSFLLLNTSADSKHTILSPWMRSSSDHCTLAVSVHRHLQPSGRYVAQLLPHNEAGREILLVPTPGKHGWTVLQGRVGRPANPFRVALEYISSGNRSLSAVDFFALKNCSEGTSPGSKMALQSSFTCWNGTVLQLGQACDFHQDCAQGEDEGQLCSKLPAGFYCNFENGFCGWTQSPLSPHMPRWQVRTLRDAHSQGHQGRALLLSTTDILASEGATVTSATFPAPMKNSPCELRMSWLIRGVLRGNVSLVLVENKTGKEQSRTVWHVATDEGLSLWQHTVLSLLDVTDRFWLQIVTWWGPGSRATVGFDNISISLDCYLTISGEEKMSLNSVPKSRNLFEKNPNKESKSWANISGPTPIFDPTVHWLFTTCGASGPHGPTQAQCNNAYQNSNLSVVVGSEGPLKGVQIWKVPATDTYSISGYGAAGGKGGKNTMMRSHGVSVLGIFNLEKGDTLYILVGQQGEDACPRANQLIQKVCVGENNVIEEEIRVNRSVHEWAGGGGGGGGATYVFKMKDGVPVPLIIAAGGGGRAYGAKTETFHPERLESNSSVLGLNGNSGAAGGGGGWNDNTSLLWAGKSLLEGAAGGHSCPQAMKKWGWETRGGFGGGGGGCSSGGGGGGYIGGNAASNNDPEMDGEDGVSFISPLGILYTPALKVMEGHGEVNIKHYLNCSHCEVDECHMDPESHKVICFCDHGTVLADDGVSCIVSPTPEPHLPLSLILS
Method: Purified mAbs were evaluated for their ability to bind murine ALK by solid-state ELISA, or flow cytometry on Neuro-2a cells that express low levels of endogenous murine ALK. […]

[3] = biological target: C-terminal region of human ALK ECD (T637-S1038) (Homo sapiens, UniProt Q9UM73); assay: Competitive binding assay (epitope binning) by flow cytometry; details: antibodies to the C-terminal region
C-terminal region of human ALK ECD (T637-S1038), sequence (Q9UM73 19-1620): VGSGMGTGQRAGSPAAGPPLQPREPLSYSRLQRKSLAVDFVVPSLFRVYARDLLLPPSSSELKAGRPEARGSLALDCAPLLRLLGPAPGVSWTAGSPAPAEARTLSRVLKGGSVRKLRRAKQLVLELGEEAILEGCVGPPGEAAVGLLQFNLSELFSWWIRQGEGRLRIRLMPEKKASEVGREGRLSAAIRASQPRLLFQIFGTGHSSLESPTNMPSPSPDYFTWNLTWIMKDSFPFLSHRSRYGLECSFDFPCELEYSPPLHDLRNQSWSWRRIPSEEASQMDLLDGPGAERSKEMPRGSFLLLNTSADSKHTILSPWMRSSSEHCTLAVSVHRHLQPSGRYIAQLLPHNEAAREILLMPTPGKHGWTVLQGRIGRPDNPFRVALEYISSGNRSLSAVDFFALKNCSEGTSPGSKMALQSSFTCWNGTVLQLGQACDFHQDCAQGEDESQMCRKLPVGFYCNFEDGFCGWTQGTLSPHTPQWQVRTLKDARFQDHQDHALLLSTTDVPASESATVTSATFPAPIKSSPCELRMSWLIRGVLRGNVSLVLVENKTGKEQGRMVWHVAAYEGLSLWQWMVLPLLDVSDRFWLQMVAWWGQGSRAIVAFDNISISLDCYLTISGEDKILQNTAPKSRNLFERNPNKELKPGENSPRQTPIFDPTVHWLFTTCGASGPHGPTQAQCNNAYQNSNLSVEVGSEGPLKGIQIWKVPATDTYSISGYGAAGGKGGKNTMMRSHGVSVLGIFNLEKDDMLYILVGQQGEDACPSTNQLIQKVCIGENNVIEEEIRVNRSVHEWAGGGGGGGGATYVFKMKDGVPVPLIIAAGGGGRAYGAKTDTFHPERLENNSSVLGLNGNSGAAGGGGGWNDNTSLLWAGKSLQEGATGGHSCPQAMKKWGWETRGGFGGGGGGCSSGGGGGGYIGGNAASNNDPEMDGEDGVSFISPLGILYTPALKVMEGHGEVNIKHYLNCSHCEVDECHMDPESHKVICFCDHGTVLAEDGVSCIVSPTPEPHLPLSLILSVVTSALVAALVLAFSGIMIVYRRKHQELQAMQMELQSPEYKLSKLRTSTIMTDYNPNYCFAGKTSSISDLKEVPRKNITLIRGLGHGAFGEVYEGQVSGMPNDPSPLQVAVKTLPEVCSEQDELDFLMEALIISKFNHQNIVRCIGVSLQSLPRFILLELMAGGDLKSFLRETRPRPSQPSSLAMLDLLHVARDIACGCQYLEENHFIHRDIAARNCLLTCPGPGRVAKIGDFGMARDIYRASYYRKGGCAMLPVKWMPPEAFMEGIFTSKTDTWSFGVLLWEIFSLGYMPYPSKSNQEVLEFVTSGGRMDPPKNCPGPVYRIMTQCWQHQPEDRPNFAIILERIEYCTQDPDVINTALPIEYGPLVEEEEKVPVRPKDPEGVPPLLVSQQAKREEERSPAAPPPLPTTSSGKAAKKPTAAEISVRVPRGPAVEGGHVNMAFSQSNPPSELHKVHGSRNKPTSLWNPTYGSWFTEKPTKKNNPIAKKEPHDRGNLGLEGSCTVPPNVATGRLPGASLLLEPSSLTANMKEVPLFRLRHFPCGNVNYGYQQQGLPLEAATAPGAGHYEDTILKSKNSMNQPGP
Method: Antibodies that bind to the C-terminal region of human ALK ECD (T637-S1038) were further characterized using a competitive binding assay. A pairwise matrix approach was used whereby each antibody was fluorescently labeled and tested for its ability to bind to ALK-expressing cells pre-incubated with an unlabeled antibody. The ability of both antibodies to bind the C-terminal domain simultaneously was tested via flow cytometry. If both antibodies bound simultaneously, they were put into different bins and considered to belong to a separate epitope class.

[4] = tested on: ALK (basal phosphorylation in NB1 cells); assay: Western blot of ALK phosphorylation in NB1 cells; format: cell-based, human
Method: Lysed cells were subjected to SDS-PAGE, transferred to nitrocellulose and immunoblotted with antibodies against total, and phospho-specific ALK, AKT, and MAPK. FIG. 4B depicts an ELISA of NB1 cells grown in media with reduced serum and treated with 30-100 nM of each antibody for 1-2 hours. Cell lysates were incubated on ELISA plates with an anti-ALK antibody, followed by incubation with a pan phosphotyrosine antibody coupled to HRP.
Cell lysates were subjected to SDS-PAGE and transferred to nitrocellulose. Immunoblotting was performed with antibodies against total, and phospho-specific ALK, AKT, and MAPK (purchased from Cell Signaling and utilized per manufacturer's instructions). HRP (horse radish peroxidase)-conjugated secondary antibodies (Thermo Scientific, Waltham, Mass.) were used along with Supersignal West Pico Chemiluminescent Substrate (Thermo Scientific, Waltham, Mass.) to image blots.
Anti-ALK monoclonal antibodies generated in Example 1 were evaluated via Western blotting for their ability to activate or inhibit basal levels of ALK phosphorylation in NB1 cells (FIG. 4A). A subset of ALK antibodies stimulated ALK tyrosine phosphorylation and a different subset of antibodies inhibited basal levels of ALK phosphorylation. See also Table 18, below. […] That is, ALK antibodies that stimulated ALK tyrosine phosphorylation increased MAPK and AKT phosphorylation, whereas ALK antibodies that inhibited ALK tyrosine phosphorylation decreased basal levels of MAPK and AKT phosphorylation (FIG. 4A). Similar results were obtained in ELISA-based ALK phosphorylation assays from lysates of NB1 cells treated with ALK antibodies (FIG. 4B).

[5] = tested on: ALK (total protein levels in NB1 cells); assay: ALK turnover (total protein levels) by Western blot, 24 hour treatment of NB1 cells; format: cell-based, human; parameters: key: − none; + weak; ++ moderate; +++ strong
Source text: FIG. 5 depicts a Western blot of a panel of ALK antibodies.
See also Table 18, below.

[6] = tested on: NB1 cells; assay: NB1 cell morphology; format: cell-based, human; details: NB1 cells treated with antibody
Source text: By contrast, treatment with Ab324, an ALK agonist, caused the cells to spread out.

[7] = tested on: NB1 cells; assay: Crizotinib titration and co-titration with ALK antibodies, killing of NB1 cells; format: cell-based, human; details: co-titration of crizotinib with the antibody
[8] = tested on: patient-derived (PDX) neuroblastoma ALK F1174L tumor; assay: Patient-derived (PDX) neuroblastoma ALK F1174L tumor model; format: in vivo, mouse; details: two weekly intraperitoneal doses at 10 mg/kg, two-week period, in comparison with control IgG1
Source text: (§2) FIGS. 8A-B depict the in vivo antitumor activity of the Ab326 anti-ALK antibody in a patient-derived (PDX) neuroblastoma ALK F1174L tumor model compared with control IgG1 (A) and a western blot of tumor homogenates harvested from the patient-derived tumor model showing relative levels of total ALK and phosphorylated ALK in Ab326-treated and control IgG1-treated mice (B). GAPDH is included in the western blot of FIG. 8B as a control for protein level.
Patient-derived (PDX) neuroblastoma tumor model mice were produced. […] Mice received two weekly intraperitoneal doses of Ab326 or a control IgG1 at 10 mg/kg.
(§3) The effect of Ab326, generated in Example 1, on the patient-derived NB tumor mouse model was consistent with its inhibitory effect on phosphorylation of ALK and downstream signaling (FIG. 8A). Tumor volume was reduced over a two-week period in comparison with a control IgG1 antibody.

[9] = biological target: T1, total ALK and phosphorylated ALK in tumor homogenates (Homo sapiens, UniProt Q9UM73, F1174L); assay: Western blot of tumor homogenates from the PDX model; format: in vivo, mouse; details: tumors harvested 72 hours after the second dose, vs control IgG1
T1 construct: Western blot analysis of homogenates of tumors harvested 72 hours after the second dose; from tissue; host or cells: patient-derived (PDX) neuroblastoma tumors grown in mice
T1 sequence (Q9UM73 19-1620 F1174L): as the sequence (Q9UM73 19-1620) above, with F1156L counted along it
Source text: as §2, §3

[10] = biological target: T2, cell surface mALK on Neuro2a cells (Mus musculus, UniProt P97793); assay: KD of humanized antibodies on Neuro2a (mouse) cells; format: binding; details: FACS, mean
T2 construct: Neuro-2a cells that express low levels of endogenous murine ALK; endogenous in cells; host or cells: Neuro-2a (Neuro2a) mouse neuroblastoma cells
T2 sequence (P97793 19-1621): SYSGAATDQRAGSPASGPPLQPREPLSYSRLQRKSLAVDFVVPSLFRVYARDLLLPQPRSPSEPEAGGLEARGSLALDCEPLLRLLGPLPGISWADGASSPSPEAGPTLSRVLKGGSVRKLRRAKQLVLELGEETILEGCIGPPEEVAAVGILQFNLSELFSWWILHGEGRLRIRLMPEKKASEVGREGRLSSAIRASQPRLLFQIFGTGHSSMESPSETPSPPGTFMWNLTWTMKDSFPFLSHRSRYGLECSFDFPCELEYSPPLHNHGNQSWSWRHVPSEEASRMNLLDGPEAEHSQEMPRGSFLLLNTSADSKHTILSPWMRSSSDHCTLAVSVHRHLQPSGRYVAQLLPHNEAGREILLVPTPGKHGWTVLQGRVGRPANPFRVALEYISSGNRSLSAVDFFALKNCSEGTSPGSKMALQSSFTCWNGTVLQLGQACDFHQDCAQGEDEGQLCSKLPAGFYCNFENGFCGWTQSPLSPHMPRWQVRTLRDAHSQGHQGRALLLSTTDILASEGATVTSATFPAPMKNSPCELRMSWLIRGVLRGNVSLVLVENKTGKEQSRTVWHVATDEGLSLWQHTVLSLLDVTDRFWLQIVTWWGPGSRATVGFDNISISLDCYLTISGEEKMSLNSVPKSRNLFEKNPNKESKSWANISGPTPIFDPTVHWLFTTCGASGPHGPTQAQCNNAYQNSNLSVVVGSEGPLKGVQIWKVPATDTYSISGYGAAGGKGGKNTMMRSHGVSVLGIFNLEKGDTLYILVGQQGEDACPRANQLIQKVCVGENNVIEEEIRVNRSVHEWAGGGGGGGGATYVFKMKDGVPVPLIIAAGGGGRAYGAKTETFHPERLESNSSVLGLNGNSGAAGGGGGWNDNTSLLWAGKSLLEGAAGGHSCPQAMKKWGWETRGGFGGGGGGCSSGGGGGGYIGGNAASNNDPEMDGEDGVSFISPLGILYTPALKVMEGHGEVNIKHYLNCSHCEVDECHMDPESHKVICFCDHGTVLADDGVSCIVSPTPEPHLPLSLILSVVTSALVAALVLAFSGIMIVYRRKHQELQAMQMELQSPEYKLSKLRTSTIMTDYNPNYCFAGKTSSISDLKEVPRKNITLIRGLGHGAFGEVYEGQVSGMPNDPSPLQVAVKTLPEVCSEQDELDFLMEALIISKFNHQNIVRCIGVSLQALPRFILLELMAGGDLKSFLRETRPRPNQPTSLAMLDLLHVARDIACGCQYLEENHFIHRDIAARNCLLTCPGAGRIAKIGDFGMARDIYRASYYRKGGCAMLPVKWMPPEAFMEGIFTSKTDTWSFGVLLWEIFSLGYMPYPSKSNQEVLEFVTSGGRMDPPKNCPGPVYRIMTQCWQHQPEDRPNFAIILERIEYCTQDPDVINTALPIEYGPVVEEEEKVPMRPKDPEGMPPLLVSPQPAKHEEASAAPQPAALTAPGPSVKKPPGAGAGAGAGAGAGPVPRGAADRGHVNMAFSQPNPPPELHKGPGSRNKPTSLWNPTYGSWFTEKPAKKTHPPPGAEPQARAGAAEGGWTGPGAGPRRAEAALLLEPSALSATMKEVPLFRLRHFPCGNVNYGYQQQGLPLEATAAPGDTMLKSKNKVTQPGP
Method: as §1

B1: Ab326: anti-ALK monoclonal antibody; VL SEQ ID NO: 407, VH SEQ ID NO: 408 (antibody, V domains shown)
VH: QVQLQQSGAELAKPGASVKLSCKASGYTFTSYWMHWVKQRPGQGLEWIGYIKPSSGYTKYNQKFKDKATLTADKSSSTAYMQLSSLTYEDSAVYYCARDYYGSSSWFAYWGQGTLVTVSA
VL: DIVMTQSQRFMSTSVGDRVSVTCKASQNVGTNVAWYQQKPGQSPKALIYSASYRYSGVPDRFTGSGSGTDFTLTISNVQSEDLAEYFCQQYNSYPYMYTFGGGTKLEIKR
modifications: VH domain - Ab326; VL domain - Ab326
Q: B1 was tested. Which Kd [1] did it give?
A: 0.94 nM

Q: What about the “mouse ALK binding” value [2] of the same molecule?
A: +++

Q: And the “Bin/Domain (bin)” value [3]?
A: 2

Q: What about the “effect on ALK activity (ALK inhibitory or ALK agonistic antibody)” value [4] of the same molecule?
A: inhibitory

Q: What about the ALK phosphorylation ([4]; effect in words) of the same molecule?
A: inhibitor

Q: What about the ALK turnover [5] of the same molecule?
A: −

Q: What about the NB1 cell morphology [6] of the same molecule?
A: rounded morphology

Q: And the “effect on the anti-proliferative effect of crizotinib” value [7]?
A: enhanced

Q: What about the tumor volume [8] of the same molecule?
A: reduced

Q: What about the “phosphorylated ALK in tumor homogenates” value [9] of the same molecule?
A: reduction

Q: And the “total ALK in tumor homogenates” value [9]?
A: reduction

Q: What about the Kd [10] of the same molecule?
A: 0.58 nM
